Assay [1] deals with VH27.2-Fc Y102A. Nature of the assay: BLI; biotinylated ENPP1-Fc antigen loaded on streptavidin biosensors, blocked with 5 uM biotin; binder in solution, 600 s association, 900 s dissociation; TBS, 0.02% TWEEN-20, 0.2% BSA, 200 uM zinc chloride, 2 mM calcium chloride, 75 mM sodium chloride; 1:1 monovalent binding model. The note with it: both partners purified. A general note: Biolayer interferometry detects binding as a change in optical thickness at a sensor tip.

In assay [2] the target is VH27/T75I/A89V-Fc. The description is as above. Particulars: both partners purified.
Assay [3] deals with VH27.2-Fc W104F. The assay is described as above. The note with it: both partners purified.
Assay [4] addresses bi-paratopic VH27.2/VH31 inhibitor (tetravalent Fc). Nature of the assay: flow cytometry on cells; MDA-MB-231 cells stained with a titration of binder, 1 hr at 4°C in PBS with 3% BSA; ProtA-647 secondary; EC50 from median fluorescence intensity, sigmoidal 4PL fit. Particulars: one partner purified. For orientation: In flow cytometry, cells or beads pass a laser one at a time.

B1: T256A ENPP1-Fc (human ENPP1 ectodomain, ΔSMB, T256A, C-terminal Fc fusion with AviTag, biotinylated) (Fc fusion)
chain: GEKSWVEEPCESINEPQCPAGFETPPTLLFSLDGFRAEYLHTWGGLLPVISKLKKCGTYTKNMRPVYPTKAFPNHYSIVTGLYPESHGIIDNKMYDPKMNASFSLKSKEKFNPEWYKGEPIWVTAKYQGLKSGTFFWPGSDVEINGIFPDIYKMYNGSVPFEERILAVLQWLQLPKDERPHFYTLYLEEPDSSGHSYGPVSSEVIKALQRVDGMVGMLMDGLKELNLHRCLNLILISDHGMEQGSCKKYIYLNKYLGDVKNIKVIYGPAARLRPSDVPDKYYSFNYEGIARNLSCREPNQHFKPYLKHFLPKRLHFAKSDRIEPLTFYLDPQWQLALNPSERKYCGSGFHGSDNVFSNMQALFVGYGPGFKHGIEADTFENIEVYNLMCDLLNLTPAPNNGTHGSLNHLLKNPVYTPKHPKEVHPLVQCPFTRNPRDNLGCSCNPSILPIEDFQTQFNLTVAEEKIIKHETLPYGRPRVLQKENTICLLSQHQFMSGYSQDILMPLWTSYTVDRNDSFSTEDFSNCLYQDFRIPLSPVHKCSFYKNNTKVSYGFLSPPQLNKNSSGIYSEALLTTNIVPMYQSFQVIWRYFHDTLLRKYAEERNGVNVVSGPVFDFDYDGRCDSLENLRQKRRVIRNQEILIPTHFFIVLTSCKDTSQTPLHCENLDTLAFILPHRTDNSESCVHGKHDSSWVEELLMLHRARITDVEHITGLSFYQQRKEPVSDILKLKTHLPTFSQED
modifications: biotin on the AviTag
By Kd is commonly meant the equilibrium constant for the complex coming apart. For the molecule B1, the Kd in assay [1] worked out at 111 nM; in assay [2], 0.7 nM; in assay [3], 14.2 nM.

B2: native ENPP1 on the cell membrane (natural protein, UniProt P22413 1-925, looked up)
chain: MERDGCAGGGSRGGEGGRAPREGPAGNGRDRGRSHAAEAPGDPQAAASLLAPMDVGEEPLEKAARARTAKDPNTYKVLSLVLSVCVLTTILGCIFGLKPSCAKEVKSCKGRCFERTFGNCRCDAACVELGNCCLDYQETCIEPEHIWTCNKFRCGEKRLTRSLCACSDDCKDKGDCCINYSSVCQGEKSWVEEPCESINEPQCPAGFETPPTLLFSLDGFRAEYLHTWGGLLPVISKLKKCGTYTKNMRPVYPTKTFPNHYSIVTGLYPESHGIIDNKMYDPKMNASFSLKSKEKFNPEWYKGEPIWVTAKYQGLKSGTFFWPGSDVEINGIFPDIYKMYNGSVPFEERILAVLQWLQLPKDERPHFYTLYLEEPDSSGHSYGPVSSEVIKALQRVDGMVGMLMDGLKELNLHRCLNLILISDHGMEQGSCKKYIYLNKYLGDVKNIKVIYGPAARLRPSDVPDKYYSFNYEGIARNLSCREPNQHFKPYLKHFLPKRLHFAKSDRIEPLTFYLDPQWQLALNPSERKYCGSGFHGSDNVFSNMQALFVGYGPGFKHGIEADTFENIEVYNLMCDLLNLTPAPNNGTHGSLNHLLKNPVYTPKHPKEVHPLVQCPFTRNPRDNLGCSCNPSILPIEDFQTQFNLTVAEEKIIKHETLPYGRPRVLQKENTICLLSQHQFMSGYSQDILMPLWTSYTVDRNDSFSTEDFSNCLYQDFRIPLSPVHKCSFYKNNTKVSYGFLSPPQLNKNSSGIYSEALLTTNIVPMYQSFQVIWRYFHDTLLRKYAEERNGVNVVSGPVFDFDYDGRCDSLENLRQKRRVIRNQEILIPTHFFIVLTSCKDTSQTPLHCENLDTLAFILPHRTDNSESCVHGKHDSSWVEELLMLHRARITDVEHITGLSFYQQRKEPVSDILKLKTHLPTFSQED
In the case of B2, the binding result in assay [4] is on record as “binds”.

Source of the values: paper PMC10746542 (Nature chemical biology, 2023).
